Source: patent US20240400715A1 (VIBRANT PHARMA, published 2024)
Positions count from the first letter of the chain named. Blank lines part the entries; values can stand above or below the binder they belong to.

Tests used:
[1] = target: T1, human CD3ε/δ (ACRO systems, CDD-H52W1) (human, UniProt P07766 23-126; P04234 22-105); experiment: serum-stability ELISA, Day 7 vs Day 0
T1 construct: bought recombinant heterodimer; also called human CD3 epsilon/delta; Human CD3ε/CD3δ
Protocol: (§1) The samples to be tested were centrifuged at 4° C. at 12000 rpm for 30 minutes to remove the precipitate. 200 μl of each sample to be tested (0.5 mg/ml) was collected in a 1.5 ml Eppendorf tube. An equal volume of human serum (GEMINI, H2OYOOK) was added, mixed thoroughly, and the mixture was incubated in a 37° C. constant temperature CO₂ incubator. For a total of 10 days, 40 μl samples was aspirated every day and stored at −20° C.
(§2) Enzyme-linked immunosorbent assay (ELISA) was used to test the bispecific antibodies' binding to human CEA and human CD3 epsilon/delta antigen. The steps are as follows: the antigen human CD3ε/δ (ACRO systems, CDD-H52W1) and the recombinant tumor antigen human CEA (CEACAM-5/CD66e, ACRO systems, CE5-H5226) were diluted to 1 μg/ml with PBS, and then added to the 96-well plate at 100 μl per well. The wells were coated overnight at 4° C. After washing 3 times with 0.05% PBST, 200 μl 5% skimmed milk powder was added to each well and incubated at 37° C. for 2 h. After washing 3 times with 0.05% PBST, 100 μl primary antibody sample (10 μg/ml) was added to each well, and incubated at 37° C. for 2 h. After washing 3 times with 0.05% PBST, 100 μl (1:6000) diluted secondary antibody goat anti-human Fc-HRP (sigma, A2170) was added to each well, incubated at room temperature for 1 h. After washing 8 times with 0.05% PBST, 50 μl TMB color developing solution was added to each well, and incubated at room temperature for 10-15 min. 50 μl 1 mM HCl was added to each well to stop the color development. 450 nm Absorbance (OD) was read.
(§3) The binding of antibodies to antigen was calculated according to the following formula: Binding (%)=[(ODdayn−ODb)/(ODday0−ODb)]×100%. ODdayn: experimental well (the protein was stored in the serum for n days); ODday0: control well (the protein was not stored in the serum); ODb: blank well (no primary antibody added).

[2] = target: T1, human CD3ε/δ (ACRO systems, CDD-H52W1); experiment: serum-stability ELISA, Day 9 vs Day 0
Protocol: as §1, §2, §3

[3] = target: T1, human CD3ε/δ (ACRO systems, CDD-H52W1); experiment: serum-stability ELISA, Day 2 vs Day 0
Protocol: as §1, §2, §3

[4] = target: T1, human CD3ε/δ (ACRO systems, CDD-H52W1); experiment: serum-stability ELISA, Day 0 (reference)
[5] = target: T1, human CD3ε/δ (ACRO systems, CDD-H52W1); experiment: serum-stability ELISA, Day 1 vs Day 0
Protocol: as §1, §2, §3

[6] = target: T1, human CD3ε/δ (ACRO systems, CDD-H52W1); experiment: serum-stability ELISA, Day 6 vs Day 0
Protocol: as §1, §2, §3

[7] = target: T1, human CD3ε/δ (ACRO systems, CDD-H52W1); experiment: serum-stability ELISA, Day 10 vs Day 0
Protocol: as §1, §2, §3

[8] = target: T1, human CD3ε/δ (ACRO systems, CDD-H52W1); experiment: serum-stability ELISA, Day 5 vs Day 0
Protocol: as §1, §2, §3

[9] = target: T1, human CD3ε/δ (ACRO systems, CDD-H52W1); experiment: serum-stability ELISA, Day 2 vs Day 0; remark: listed apart in the source
Protocol: as §1, §2, §3

[10] = target: T1, human CD3ε/δ (ACRO systems, CDD-H52W1); experiment: serum-stability ELISA, Day 7 vs Day 0; remark: listed apart in the source
Protocol: as §1, §2, §3

[11] = target: T1, human CD3ε/δ (ACRO systems, CDD-H52W1); experiment: serum-stability ELISA, Day 10 vs Day 0; remark: listed apart in the source
Protocol: as §1, §2, §3

[12] = target: T1, human CD3ε/δ (ACRO systems, CDD-H52W1); experiment: serum-stability ELISA, Day 1 vs Day 0; remark: listed apart in the source
Protocol: as §1, §2, §3

[13] = target: T1, human CD3ε/δ (ACRO systems, CDD-H52W1); experiment: serum-stability ELISA, Day 6 vs Day 0; remark: listed apart in the source
Protocol: as §1, §2, §3

[14] = target: T1, human CD3ε/δ (ACRO systems, CDD-H52W1); experiment: serum-stability ELISA, Day 0 (reference); remark: listed apart in the source
[15] = target: T1, human CD3ε/δ (ACRO systems, CDD-H52W1); experiment: serum-stability ELISA, Day 9 vs Day 0; remark: listed apart in the source
Protocol: as §1, §2, §3

[16] = target: T1, human CD3ε/δ (ACRO systems, CDD-H52W1); experiment: serum-stability ELISA, Day 5 vs Day 0; remark: listed apart in the source
Protocol: as §1, §2, §3

Binding % [1]: 102% | Binding % [2]: 101% | Binding % [3]: 102% | Binding % [4]: 100% | Binding % [5]: 105% | Binding % [6]: 101% | Binding % [7]: 101% | Binding % [8]: 97.3%
B1: 210 (Fab (Light)-Knob+Fab (Heavy)-Hole-CEA) (bispecific antibody, human IgG4 S228P, kappa, F234A L235A)
light: QAVVTQESALTTSPGETVTLTCRSSTGAVTTSNYANWVQEKPDHLFTGLIGGTNKRAPGVPARFSGSLIGDKAALTITGAQTEDEAIYFCALWYSNLWVFGGGTKVEIKRTVAAPSVFIFPPSDEQLKSGTASVVCLLNNFYPREAKVQWKVDNALQSGNSQESVTEQDSKDSTYSLSSTLTLSKADYEKHKVYACEVTHQGLSSPVTKSFNRGECESKYGPPCPPCPAPEAAGGPSVFLFPPKPKDTLMISRTPEVTCVVVDVSQEDPEVQFNWYVDGVEVHNAKTKPREEQFNSTYRVVSVLTVLHQDWLNGKEYKCKVSNKGLPSSIEKTISKAKGQPREPQVYTLPPCQEEMTKNQVSLWCLVKGFYPSDIAVEWESNGQPENNYKTTPPVLDSDGSFFLYSRLTVDKSRWQEGNVFSCSVMHEALHNHYTQKSLSLSL
heavy: EVKLLESGGGLVQPKGSLKLSCAASGFTFNTYAMNWVRQAPGKGLEWVARIRSKYNNYATYYADSVKDRFTISRDDSQSILYLQMNNLKTEDTAMYYCVRHGNFGNSYVSWFAYWGQGTLVTVSSASTKGPSVFPLAPCSRSTSESTAALGCLVKDYFPEPVTVSWNSGALTSGVHTFPAVLQSSGLYSLSSVVTVPSSSLGTKTYTCNVDHKPSNTKVDKRVESKYGPPCPPCPAPEAAGGPSVFLFPPKPKDTLMISRTPEVTCVVVDVSQEDPEVQFNWYVDGVEVHNAKTKPREEQFNSTYRVVSVLTVLHQDWLNGKEYKCKVSNKGLPSSIEKTISKAKGQPREPQVCTLPPSQEEMTKNQVSLSCAVKGFYPSDIAVEWESNGQPENNYKTTPPVLDSDGSFFLVSRLTVDKSRWQEGNVFSCSVMHEALHNRFTQKSLSLSLGGGGSGGGGSEVQLVESGGGFVQAGESLTLSCTSSTLTFTPYRMAWYRQAPGKQRDLVADISSGDGRTTNYADFAKGRFTISRDNIKNTVFLRMTNLKPEDTAVYYCNTFVSFVGIARSWGQGTQVTVSS
notes: two-chain format: VL-CL fused to knob Fc

Binding % [9]: 110% | Binding % [10]: 105% | Binding % [11]: 112% | Binding % [12]: 112% | Binding % [13]: 101% | Binding % [14]: 100% | Binding % [15]: 95.1% | Binding % [16]: 115%
B4: 306 (TA7), configuration of FIG. 1W (bispecific antibody)
heavy: EVQLVQSGAEVKKPGASVKVSCKASGFTFTSYYIHWVRQAPGQGLEWIGWIYPENDNTKYNEKFKDRVTITADTSTSTAYLELSSLRSEDTAVYYCARDGYSRYYFDYWGQGTLVTVSSASTKGPSVFPLAPCSRSTSESTAALGCLVKDYFPEPVTVSWNSGALTSGVHTFPAVLQSSGLYSLSSVVTVPSSSLGTKTYTCNVDHKPSNTKVDKRVESKYGPPCPPCPAPEAAGGPSVFLFPPKPKDTLMISRTPEVTCVVVDVSQEDPEVQFNWYVDGVEVHNAKTKPREEQFNSTYRVVSVLTVLHQDWLNGKEYKCKVSNKGLPSSIEKTISKAKGQPREPQVYTLPPCQEEMTKNQVSLWCLVKGFYPSDIAVEWESNGQPENNYKTTPPVLDSDGSFFLYSRLTVDKSRWQEGNVFSCSVMHEALHNHYTQKSLSLSL
chain: EVQLVESGGGFVQAGESLTLSCTSSTLTFTPYRMAWYRQAPGKQRDLVADISSGDGRTTNYADFAKGRFTISRDNIKNTVFLRMTNLKPEDTAVYYCNTFVSFVGIARSWGQGTQVTVSSESKYGPPCPPCPAPEAAGGPSVFLFPPKPKDTLMISRTPEVTCVVVDVSQEDPEVQFNWYVDGVEVHNAKTKPREEQFNSTYRVVSVLTVLHQDWLNGKEYKCKVSNKGLPSSIEKTISKAKGQPREPQVCTLPPSQEEMTKNQVSLSCAVKGFYPSDIAVEWESNGQPENNYKTTPPVLDSDGSFFLVSRLTVDKSRWQEGNVFSCSVMHEALHNRFTQKSLSLSL
light: DIVMTQSPDSLAVSLGERATINCKSSQSLLNSRTRKNYLAWYQQKPGQSPKLLIYWTSTRKSGVPDRFSGSGSGTDFTLTISSLQAEDVAVYYCKQSFILRTFGQGTKVEIK
notes: not shown: kappa light chain constant domain (CL)

Continued, binder first:

B2: 302 (TA3), configuration of FIG. 1W (bispecific antibody)
heavy: EVQLVESGGGLVQPGGSLRLSCAASGYSFTGYTMNWVRQAPGKGLEWVALINPYKGVSTYNQKFKDRFTISVDKSKNTAYLQMNSLRAEDTAVYYCARSGYYGDSDWYFDVWGQGTLVTVSSASTKGPSVFPLAPCSRSTSESTAALGCLVKDYFPEPVTVSWNSGALTSGVHTFPAVLQSSGLYSLSSVVTVPSSSLGTKTYTCNVDHKPSNTKVDKRVESKYGPPCPPCPAPEAAGGPSVFLFPPKPKDTLMISRTPEVTCVVVDVSQEDPEVQFNWYVDGVEVHNAKTKPREEQFNSTYRVVSVLTVLHQDWLNGKEYKCKVSNKGLPSSIEKTISKAKGQPREPQVYTLPPCQEEMTKNQVSLWCLVKGFYPSDIAVEWESNGQPENNYKTTPPVLDSDGSFFLYSRLTVDKSRWQEGNVFSCSVMHEALHNHYTQKSLSLSL
chain: B4 chain
light: DIQMTQSPSSLSASVGDRVTITCRASQDIRNYLNWYQQKPGKAPKLLIYYTSRLESGVPSRFSGSGSGTDYTLTISSLQPEDFATYYCQQGNTLPWTFGQGTKVEIK
notes: as for B4
Binding % [9]: 104% | Binding % [10]: 104% | Binding % [11]: 106% | Binding % [12]: 108% | Binding % [13]: 107% | Binding % [14]: 100% | Binding % [15]: 103% | Binding % [16]: 110%

B3: 305 (TA6), configuration of FIG. 1W (bispecific antibody)
heavy: B4 heavy with F27Y, S31N, E54G, N55D, D56G, D66G, V68A, I70L, G100S, R103N
chain: B4 chain
light: B4 light with S49P, T57A, K61E, K95T
notes: as for B4
Binding % [9]: 109% | Binding % [10]: 110% | Binding % [11]: 108% | Binding % [12]: 112% | Binding % [13]: 111% | Binding % [14]: 100% | Binding % [15]: 109% | Binding % [16]: 110%

B5: 304 (TA5), configuration of FIG. 1W (bispecific antibody)
heavy: DVQLVQSGAEVKKPGASVKVSCKASGYTFTRYTMHWVRQAPGQGLEWIGYINPSRGYTNYADSVKGRFTITTDKSTSTAYMELSSLRSEDTATYYCARYYDDHYCLDYWGQGTTVTVSSASTKGPSVFPLAPCSRSTSESTAALGCLVKDYFPEPVTVSWNSGALTSGVHTFPAVLQSSGLYSLSSVVTVPSSSLGTKTYTCNVDHKPSNTKVDKRVESKYGPPCPPCPAPEAAGGPSVFLFPPKPKDTLMISRTPEVTCVVVDVSQEDPEVQFNWYVDGVEVHNAKTKPREEQFNSTYRVVSVLTVLHQDWLNGKEYKCKVSNKGLPSSIEKTISKAKGQPREPQVYTLPPCQEEMTKNQVSLWCLVKGFYPSDIAVEWESNGQPENNYKTTPPVLDSDGSFFLYSRLTVDKSRWQEGNVFSCSVMHEALHNHYTQKSLSLSL
chain: B4 chain
light: DIVLTQSPATLSLSPGERATLSCRASQSVSYMNWYQQKPGKAPKRWIYDTSKVASGVPARFSGSGSGTDYSLTINSLEAEDAATYYCQQWSSNPLTFGGGTKVEIK
notes: VL row printed 'TAS VL', read as TA5 VL; full chains assembled from parts; not shown: kappa light chain constant domain (CL)
Binding % [9]: 106% | Binding % [10]: 107% | Binding % [11]: 101% | Binding % [12]: 108% | Binding % [13]: 105% | Binding % [14]: 100% | Binding % [15]: 101% | Binding % [16]: 100%
